Measurements taken from PMC9687425, “Global Regulator AdpA_1075 Regulates Morphological Differentiation and Ansamitocin Production in Actinosynnema pretiosum subsp. auranticum”.

Tests used:
AdpA_1075 [1] = target: T1, AdpA_1075 (Actinosynnema pretiosum subsp. …, UniProt A0A290Z1C2 1-322); assay: EMSA; protein concentration-dependent shift; excess unlabeled specific DNA competes; Beyotime Chemiluminescent EMSA Kit (buffer, salt and pH not stated); 20 ng biotin-labeled probe, 10 min at room temperature, 5% polyacrylamide gel; details: protein: recombinant; tags: His6 (pET-28a NdeI/HindIII; the reverse primer keeps the stop codon, so N-terminal tag; named AdpA_1075-His6 in the text); chain copies: 2; label: 5' biotin on strand 1; blunt
T1 sequence: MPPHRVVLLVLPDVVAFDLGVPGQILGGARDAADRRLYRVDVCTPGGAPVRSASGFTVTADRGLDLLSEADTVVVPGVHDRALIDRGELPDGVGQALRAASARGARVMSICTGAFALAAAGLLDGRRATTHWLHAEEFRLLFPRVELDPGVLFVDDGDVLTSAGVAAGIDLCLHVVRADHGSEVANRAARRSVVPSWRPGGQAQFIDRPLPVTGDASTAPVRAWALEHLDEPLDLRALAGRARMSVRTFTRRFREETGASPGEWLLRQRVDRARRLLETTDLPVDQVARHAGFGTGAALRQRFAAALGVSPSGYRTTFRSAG

AdpA_1075 [2] = target: T1, AdpA_1075; assay: EMSA; shifted with 1000 nM protein; excess unlabeled specific DNA competes; Beyotime Chemiluminescent EMSA Kit (buffer, salt and pH not stated); 20 ng biotin-labeled probe, 10 min at room temperature, 5% polyacrylamide gel; details: protein: recombinant; tags: His6 (pET-28a NdeI/HindIII; the reverse primer keeps the stop codon, so N-terminal tag; named AdpA_1075-His6 in the text); chain copies: 2; label: 5' biotin on strand 1; blunt

B1: PssgA (dsDNA)
DNA 1: GTGTTGGCCGGAACCACGGTGTTGGCCGGAACCACGGTGTTGGCCGGAACCACG
DNA 2: CGTGGTTCCGGCCAACACCGTGGTTCCGGCCAACACCGTGGTTCCGGCCAACAC
Q: Does B1 bind (AdpA_1075 [1])?
A: binds

B2: Pasm28 (dsDNA)
DNA 1: CGCAGTGGCCCGAACGGGTCCGCAGTGGCCCGAACGGGTCCGCAGTGGCCCGAACGGGTC
DNA 2: GACCCGTTCGGGCCACTGCGGACCCGTTCGGGCCACTGCGGACCCGTTCGGGCCACTGCG
Q: Does B2 bind (AdpA_1075 [2])?
A: binds
